Assay results taken from US20150125444A1 (AstraZeneca / MedImmune, published 2015).

T1: Human FcγRIIa extracellular domain (human, UniProt P12318 34-217)
T1 construct: extracellular domain
T1 sequence (looked up): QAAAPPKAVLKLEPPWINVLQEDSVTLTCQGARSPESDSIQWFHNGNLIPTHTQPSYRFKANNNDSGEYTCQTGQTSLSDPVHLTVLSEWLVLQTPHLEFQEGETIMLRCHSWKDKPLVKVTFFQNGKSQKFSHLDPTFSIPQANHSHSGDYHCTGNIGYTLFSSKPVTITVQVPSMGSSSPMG

T2: Human FcγRIIb extracellular domain (human, UniProt P31994 43-217)
T2 construct: extracellular domain
T2 sequence (looked up): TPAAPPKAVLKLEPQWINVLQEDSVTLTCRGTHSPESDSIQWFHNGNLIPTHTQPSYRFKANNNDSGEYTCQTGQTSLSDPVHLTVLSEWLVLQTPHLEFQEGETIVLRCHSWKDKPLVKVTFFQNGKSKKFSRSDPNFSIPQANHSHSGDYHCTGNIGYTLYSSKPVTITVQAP


What was measured:
[1] = molecular target: Human FcRn (extracellular domain) (human, UniProt P55899 24-297); assay: SPR (ProteOn XPR36), antibody immobilised, steady state, pH 6.0
Method: (§1) Experiments were performed using the ProteOn XPR36 surface plasmon resonance system (Bio Rad). Phosphate buffered saline with 0.005% Tween 20 (PBS/Tween), pH 7.4 was used as running buffer for most experiments with the exception of Human FcRn (extracellular domain) binding in which Phosphate buffered saline with 0.005% Tween 20 (PBS/Tween), pH 6.0 was used. All experiments were performed at 25° C. Antibodies were immobilized on a ProteOn™ GLC Sensor Chip (#176-5011) using EDAC (1-Ethyl-3-[3-dimethylaminopropyl]carbodiimide) and sulfo-NHS (N-hydroxysulfosuccinimide) to an R.U. (response unit) level of 4000-6000. C1q, FcγRI, FcγRIIa, FcγRIIb, FcγRIII(158V), FcγRIII(158F), and FcRn were then flowed over the IgG immobilized surface at various concentrations at a rate of 25 μl/minute for a long enough period of time to achieve steady state, or near steady state. Binding (if any could be determined) was quantified via steady state equilibrium binding analysis using the ProteOn software. Human FcγRI, FcγRIIa, FcγRIIb, FcγRIII(158V), FcγRIII(158F), and FcRn extracellular domains were generated via mammalian expression vectors in house. Human C1q was obtained from Quidel (CA).

[2] = molecular target: T3, Human FcγRIIIa (158V) extracellular domain (human, UniProt P08637 17-208); assay: SPR (ProteOn XPR36), antibody immobilised, steady state, pH 7.4
T3 construct: extracellular domain; Position 158 is the usual allotype numbering (mature protein), not the precursor numbering of the database entry; also called FcγRIII(158V)
Method: as §1

[3] = molecular target: T4, Human FcγRIIIa (158F) extracellular domain (human, UniProt P08637 17-208); assay: as above
T4 construct: extracellular domain; also called FcγRIII(158F)
Method: as §1

[4] = molecular target: T1, Human FcγRIIa extracellular domain; assay: as above
Method: as §1

[5] = molecular target: T2, Human FcγRIIb extracellular domain; assay: as above
Method: as §1

[6] = molecular target: T5, Human FcγRIa extracellular domain (human, UniProt P12314 16-292); assay: as above
T5 construct: extracellular domain
Method: as §1

Human C1q = molecular target: T6, Human C1q (human, UniProt P02745 23-245; P02746 28-253; P02747 29-245); assay: as above
T6 construct: Bought complement protein; In the CDC assay C1q came with human serum
Method: as §1

T5 sequence (P12314 16-292): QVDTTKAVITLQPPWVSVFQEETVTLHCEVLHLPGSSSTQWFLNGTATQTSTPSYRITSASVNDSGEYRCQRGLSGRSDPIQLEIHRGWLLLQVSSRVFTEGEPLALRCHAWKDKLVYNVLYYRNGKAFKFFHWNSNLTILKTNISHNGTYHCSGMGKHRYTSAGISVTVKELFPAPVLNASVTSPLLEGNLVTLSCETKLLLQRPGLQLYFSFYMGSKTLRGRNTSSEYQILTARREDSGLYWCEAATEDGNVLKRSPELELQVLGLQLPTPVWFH
Sequence of Human FcRn (extracellular domain) (P55899 24-297): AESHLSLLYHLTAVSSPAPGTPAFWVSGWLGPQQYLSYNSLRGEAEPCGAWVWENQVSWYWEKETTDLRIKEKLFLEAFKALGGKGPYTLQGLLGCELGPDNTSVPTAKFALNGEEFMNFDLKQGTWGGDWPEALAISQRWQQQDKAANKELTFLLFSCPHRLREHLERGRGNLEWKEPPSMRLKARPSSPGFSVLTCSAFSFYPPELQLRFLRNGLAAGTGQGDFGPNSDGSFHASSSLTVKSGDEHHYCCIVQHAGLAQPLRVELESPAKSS
T6 sequence (P02745 23-245 limits assumed, chain 1 of 3): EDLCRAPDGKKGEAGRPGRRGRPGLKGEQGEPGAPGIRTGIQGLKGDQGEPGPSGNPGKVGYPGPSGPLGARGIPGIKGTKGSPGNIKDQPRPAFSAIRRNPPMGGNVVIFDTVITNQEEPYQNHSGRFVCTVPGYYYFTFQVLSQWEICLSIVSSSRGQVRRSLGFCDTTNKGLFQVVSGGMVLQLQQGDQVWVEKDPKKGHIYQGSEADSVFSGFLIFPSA
T6 sequence (P02746 28-253 limits assumed, chain 2 of 3): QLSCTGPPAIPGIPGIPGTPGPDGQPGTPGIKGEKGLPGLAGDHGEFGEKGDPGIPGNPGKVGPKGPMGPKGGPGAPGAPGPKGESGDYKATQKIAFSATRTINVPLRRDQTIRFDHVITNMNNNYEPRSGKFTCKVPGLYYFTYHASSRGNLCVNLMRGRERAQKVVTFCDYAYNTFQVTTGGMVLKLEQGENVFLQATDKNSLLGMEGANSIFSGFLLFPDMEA
T6 sequence (P02747 29-245 limits assumed, chain 3 of 3): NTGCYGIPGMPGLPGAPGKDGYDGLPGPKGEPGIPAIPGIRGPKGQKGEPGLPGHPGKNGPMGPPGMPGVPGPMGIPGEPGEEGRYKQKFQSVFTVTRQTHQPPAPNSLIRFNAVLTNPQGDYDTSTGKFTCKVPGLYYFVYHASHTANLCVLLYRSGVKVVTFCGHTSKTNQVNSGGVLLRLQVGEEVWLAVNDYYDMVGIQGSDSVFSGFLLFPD
T4 sequence (P08637 17-208): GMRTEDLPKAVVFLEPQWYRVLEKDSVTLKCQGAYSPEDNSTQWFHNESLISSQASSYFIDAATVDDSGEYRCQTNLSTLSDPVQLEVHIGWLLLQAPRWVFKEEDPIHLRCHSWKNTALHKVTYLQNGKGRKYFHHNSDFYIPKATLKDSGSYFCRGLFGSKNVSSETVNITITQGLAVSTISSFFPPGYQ
T3 sequence (P08637 17-208 F176V): as the sequence (P08637 17-208) above, with F160V counted along it

| Binder | Kd [1] | Kd [2] | Kd [3] | Kd [4] | Kd [5] | Kd [6] | Kd (Human C1q) | binding result [2] | binding result [3] | binding result [4] | binding result [5] | binding result [6] | binding result (Human C1q) |
| --- | --- | --- | --- | --- | --- | --- | --- | --- | --- | --- | --- | --- | --- |
| Ab4 (anti-C5a antibody 1B8) with wild-type IgG1 Fc domain (antibody, Full human IgG1 lambda antibody; also called Ab4 WT; WT) heavy: not shown light: QSALTQPPSASGTPGQRVTISCSGTNSNIGSNYVFWYQQLPGTAPKLLIFESNRRPSGVPDRFSGSKSDTSASLAISGLRSEDEADYYCATWDDTLIAPVFGSGTKVTVLGQPKANPTVTLFPPSSEELQANKATLVCLISDFYPGAVTVAWKADSSPVKAGVETTTPSKQSNNKYAASSYLSLTPEQWKSHRSYSCQVTHEGSTVEKTVAPAEC | 1070 nM | 380 nM | 1.6 µM | 1000 nM | 2.5 µM | 31 nM | 250 nM | – | – | – | – | – | – |
| Ab4 (anti-C5a antibody 1B8) with FQQ-YTE variant IgG1 Fc domain (antibody, Full IgG1; also called Ab4 FQQ-YTE) heavy: EVQLLESGGGLVQPGGSLRLSCAASGFTFSSYVMNWVRQAPGKGLEWVSSISPSGGRTWYADSVKGRFTISRDNSKNTLYLQMNSLRAEDTAVYYCARSDGSAAGFLGYWGQGTLVTVSSASTKGPSVFPLAPSSKSTSGGTAALGCLVKDYFPEPVTVSWNSGALTSGVHTFPAVLQSSGLYSLSSVVTVPSSSLGTQTYICNVNHKPSNTKVDKRVEPKSCDKTHTCPPCPAPEFQGGPSVFLFPPKPKDTLYITREPEVTCVVVDVSHEDPEVKFNWYVDGVEVHNAKTKPREEQYNSTYRVVSVLTVLHQDWLNGKEYKCQVSNKALPAPIEKTISKAKGQPREPQVYTLPPSREEMTKNQVSLTCLVKGFYPSDIAVEWESNGQPENNYKTTPPVLDSDGSFFLYSKLTVDKSRWQQGNVFSCSVMHEALHNHYTQKSLSLSPGK light: QSALTQPPSASGTPGQRVTISCSGTNSNIGSNYVFWYQQLPGTAPKLLIFESNRRPSGVPDRFSGSKSDTSASLAISGLRSEDEADYYCATWDDTLIAPVFGSGTKVTVLGQPKANPTVTLFPPSSEELQANKATLVCLISDFYPGAVTVAWKADSSPVKAGVETTTPSKQSNNKYAASSYLSLTPEQWKSHRSYSCQVTHEGSTVEKTVAPAEC | 290 nM | – | – | – | – | – | – | no binding | no binding | no binding | no binding | no binding | no binding |
| Ab4 (anti-C5a antibody 1B8) with FQG-YTE variant IgG1 Fc domain (antibody, Full IgG1; also called Ab4 FQG-YTE) heavy: EVQLLESGGGLVQPGGSLRLSCAASGFTFSSYVMNWVRQAPGKGLEWVSSISPSGGRTWYADSVKGRFTISRDNSKNTLYLQMNSLRAEDTAVYYCARSDGSAAGFLGYWGQGTLVTVSSASTKGPSVFPLAPSSKSTSGGTAALGCLVKDYFPEPVTVSWNSGALTSGVHTFPAVLQSSGLYSLSSVVTVPSSSLGTQTYICNVNHKPSNTKVDKRVEPKSCDKTHTCPPCPAPEFQGGPSVFLFPPKPKDTLYITREPEVTCVVVDVSHEDPEVKFNWYVDGVEVHNAKTKPREEQYNSTYRVVSVLTVLHQDWLNGKEYKCKVSNKALPAGIEKTISKAKGQPREPQVYTLPPSREEMTKNQVSLTCLVKGFYPSDIAVEWESNGQPENNYKTTPPVLDSDGSFFLYSKLTVDKSRWQQGNVFSCSVMHEALHNHYTQKSLSLSPGK light: QSALTQPPSASGTPGQRVTISCSGTNSNIGSNYVFWYQQLPGTAPKLLIFESNRRPSGVPDRFSGSKSDTSASLAISGLRSEDEADYYCATWDDTLIAPVFGSGTKVTVLGQPKANPTVTLFPPSSEELQANKATLVCLISDFYPGAVTVAWKADSSPVKAGVETTTPSKQSNNKYAASSYLSLTPEQWKSHRSYSCQVTHEGSTVEKTVAPAEC | 350 nM | – | – | – | – | – | – | no binding | no binding | no binding | no binding | no binding | no binding |
| Ab3 (anti-CD20 antibody HB20.3) with wild-type IgG1 Fc domain (antibody, Full human IgG1 kappa antibody; also called Ab3 WT; WT) heavy: not shown light: DIQMTQSPASLSASVGETVTITCRASGNIHNYLAWYQQKQGKSPQLLVYNAKTLADGVPSRFSGSGSGTQFSLKINSLQPEDFGSYYCQHFWSTPWTFGGGTKLEIKRTVAAPSVFIFPPSDEQLKSGTASVVCLLNNFYPREAKVQWKVDNALQSGNSQESVTEQDSKDSTYSLSSTLTLSKADYEKHKVYACEVTHQGLSSPVTKSFNRGEC | 670 nM | 900 nM | 4.7 µM | 1200 nM | 6 µM | 78 nM | 103 nM | – | – | – | – | – | – |

Now those with a lower Kd [1], led by results:

| Kd [1] | Kd [2] | Kd [3] | Kd [4] | Kd [5] | Kd [6] | Kd (Human C1q) | binding result [2] | binding result [3] | binding result [4] | binding result [5] | binding result [6] | binding result (Human C1q) | Binder |
| --- | --- | --- | --- | --- | --- | --- | --- | --- | --- | --- | --- | --- | --- |
| 270 nM | 820 nM | 2.8 µM | 1900 nM | 3.6 µM | 43 nM | 400 nM | – | – | – | – | – | – | Ab4 (anti-C5a antibody 1B8) with YTE variant IgG1 Fc domain (antibody, Full IgG1; also called Ab4 YTE) heavy: EVQLLESGGGLVQPGGSLRLSCAASGFTFSSYVMNWVRQAPGKGLEWVSSISPSGGRTWYADSVKGRFTISRDNSKNTLYLQMNSLRAEDTAVYYCARSDGSAAGFLGYWGQGTLVTVSSASTKGPSVFPLAPSSKSTSGGTAALGCLVKDYFPEPVTVSWNSGALTSGVHTFPAVLQSSGLYSLSSVVTVPSSSLGTQTYICNVNHKPSNTKVDKRVEPKSCDKTHTCPPCPAPELLGGPSVFLFPPKPKDTLYITREPEVTCVVVDVSHEDPEVKFNWYVDGVEVHNAKTKPREEQYNSTYRVVSVLTVLHQDWLNGKEYKCKVSNKALPAPIEKTISKAKGQPREPQVYTLPPSREEMTKNQVSLTCLVKGFYPSDIAVEWESNGQPENNYKTTPPVLDSDGSFFLYSKLTVDKSRWQQGNVFSCSVMHEALHNHYTQKSLSLSPGK light: QSALTQPPSASGTPGQRVTISCSGTNSNIGSNYVFWYQQLPGTAPKLLIFESNRRPSGVPDRFSGSKSDTSASLAISGLRSEDEADYYCATWDDTLIAPVFGSGTKVTVLGQPKANPTVTLFPPSSEELQANKATLVCLISDFYPGAVTVAWKADSSPVKAGVETTTPSKQSNNKYAASSYLSLTPEQWKSHRSYSCQVTHEGSTVEKTVAPAEC |
| 270 nM | – | – | – | – | – | – | – | – | – | – | – | – | Ab4 (anti-C5a antibody 1B8) with FES-YTE variant IgG1 Fc domain (antibody, Full IgG1; also called Ab4 FES-YTE) heavy: EVQLLESGGGLVQPGGSLRLSCAASGFTFSSYVMNWVRQAPGKGLEWVSSISPSGGRTWYADSVKGRFTISRDNSKNTLYLQMNSLRAEDTAVYYCARSDGSAAGFLGYWGQGTLVTVSSASTKGPSVFPLAPSSKSTSGGTAALGCLVKDYFPEPVTVSWNSGALTSGVHTFPAVLQSSGLYSLSSVVTVPSSSLGTQTYICNVNHKPSNTKVDKRVEPKSCDKTHTCPPCPAPEFEGGPSVFLFPPKPKDTLYITREPEVTCVVVDVSHEDPEVKFNWYVDGVEVHNAKTKPREEQYNSTYRVVSVLTVLHQDWLNGKEYKCKVSNKALPASIEKTISKAKGQPREPQVYTLPPSREEMTKNQVSLTCLVKGFYPSDIAVEWESNGQPENNYKTTPPVLDSDGSFFLYSKLTVDKSRWQQGNVFSCSVMHEALHNHYTQKSLSLSPGK light: QSALTQPPSASGTPGQRVTISCSGTNSNIGSNYVFWYQQLPGTAPKLLIFESNRRPSGVPDRFSGSKSDTSASLAISGLRSEDEADYYCATWDDTLIAPVFGSGTKVTVLGQPKANPTVTLFPPSSEELQANKATLVCLISDFYPGAVTVAWKADSSPVKAGVETTTPSKQSNNKYAASSYLSLTPEQWKSHRSYSCQVTHEGSTVEKTVAPAEC |
| 235 nM | 800 nM | 6.1 µM | 2800 nM | 1.6 µM | 140 nM | 70 nM | – | – | – | – | – | – | Ab3 (anti-CD20 antibody HB20.3) with YTE variant IgG1 Fc domain (antibody, Full IgG1; also called Ab3 YTE) heavy: QVQLQQPGAELVKPGASVKMSCKASGFTFTNYNMHWLKQTPGQGLEWIGAIYPENGDTSYNQKFKGKATLTADKASSTAYMHLSSLTSEDSAVYFCARFYYYGSYYGAMDYWGQGTSVTVSSASTKGPSVFPLAPSSKSTSGGTAALGCLVKDYFPEPVTVSWNSGALTSGVHTFPAVLQSSGLYSLSSVVTVPSSSLGTQTYICNVNHKPSNTKVDKRVEPKSCDKTHTCPPCPAPELLGGPSVFLFPPKPKDTLYITREPEVTCVVVDVSHEDPEVKFNWYVDGVEVHNAKTKPREEQYNSTYRVVSVLTVLHQDWLNGKEYKCKVSNKALPAPIEKTISKAKGQPREPQVYTLPPSREEMTKNQVSLTCLVKGFYPSDIAVEWESNGQPENNYKTTPPVLDSDGSFFLYSKLTVDKSRWQQGNVFSCSVMHEALHNHYTQKSLSLSPGK light: DIQMTQSPASLSASVGETVTITCRASGNIHNYLAWYQQKQGKSPQLLVYNAKTLADGVPSRFSGSGSGTQFSLKINSLQPEDFGSYYCQHFWSTPWTFGGGTKLEIKRTVAAPSVFIFPPSDEQLKSGTASVVCLLNNFYPREAKVQWKVDNALQSGNSQESVTEQDSKDSTYSLSSTLTLSKADYEKHKVYACEVTHQGLSSPVTKSFNRGEC |
